{
  "source": "FireProtDB (doi:10.1046/j.1432-1327.1999.00491.x)",
  "proteins": {"B1": {"name": "Regulatory protein cro wild type, P03036 (protein)", "chain": "MQTLSERLKKRRIALKMTQTELATKAGVKQQSIQLIEAGVTKRPRFLFEIAMALNCDPVWLQYGTKRGKAA"}},
  "settings": "Enterobacteria phage 434, Thermal, DSC, reversible: yes, whole UniProt chain shown; for unfolding free energy: 25 °C",
  "key": {"[1]": {"settings": "pH 2, glycine 20 mM, NaCl 200 mM"}, "[2]": {"settings": "pH 3, glycine 20 mM, NaCl 200 mM"}, "[3]": {"settings": "pH 4, Sodium acetate 20 mM, NaCl 200 mM"}, "[4]": {"settings": "pH 4.5, Sodium acetate 20 mM, NaCl 200 mM"}},
  "note": "Values joined by “and” are separate entries in the source; they are usually repeats but may differ in a detail not shown here. Identical values can stand only once.",
  "data": [
    {"protein": "B1", "values": [
      {"measurement": "unfolding free energy", "setting": "[1]", "value": 1.17, "unit": "kcal/mol"},
      {"measurement": "unfolding free energy", "setting": "pH 2, glycine 20 mM", "value": 0.22, "unit": "kcal/mol"},
      {"measurement": "Tm", "setting": "[1]", "value": "38.3 °C and 39.4 °C and 35.6 °C"},
      {"measurement": "unfolding enthalpy (calorimetric)", "setting": "[1]", "value": "33.5 kcal/mol and 33.9 kcal/mol and 34.2 kcal/mol"},
      {"measurement": "unfolding enthalpy (calorimetric)", "setting": "pH 2, glycine 20 mM", "value": "24.1 kcal/mol and 27.5 kcal/mol and 22.2 kcal/mol"},
      {"measurement": "unfolding free energy", "setting": "[2]", "value": 2.27, "unit": "kcal/mol"},
      {"measurement": "unfolding free energy", "setting": "pH 3, glycine 20 mM", "value": 2.58, "unit": "kcal/mol"},
      {"measurement": "unfolding enthalpy (calorimetric)", "setting": "[2]", "value": "42.1 kcal/mol and 40.4 kcal/mol and 39 kcal/mol"},
      {"measurement": "unfolding enthalpy (calorimetric)", "setting": "pH 3, glycine 20 mM", "value": "34.4 kcal/mol and 32 kcal/mol"},
      {"measurement": "unfolding free energy", "setting": "[3]", "value": 3.78, "unit": "kcal/mol"},
      {"measurement": "unfolding free energy", "setting": "pH 4, Sodium acetate 20 mM", "value": 3.59, "unit": "kcal/mol"},
      {"measurement": "Tm", "setting": "[3]", "value": "59.8 °C and 57.8 °C and 57.2 °C"},
      {"measurement": "unfolding enthalpy (calorimetric)", "setting": "[3]", "value": "51.1 kcal/mol and 50 kcal/mol and 49.7 kcal/mol"},
      {"measurement": "Tm", "setting": "pH 4, Sodium acetate 20 mM", "value": "58.2 °C and 53.6 °C"},
      {"measurement": "unfolding enthalpy (calorimetric)", "setting": "pH 4, Sodium acetate 20 mM", "value": "50 kcal/mol and 45.6 kcal/mol and 44.2 kcal/mol"},
      {"measurement": "unfolding free energy", "setting": "[4]", "value": 4.33, "unit": "kcal/mol"},
      {"measurement": "unfolding free energy", "setting": "pH 4.5, Sodium acetate 20 mM", "value": 4.4, "unit": "kcal/mol"},
      {"measurement": "Tm", "setting": "[4]", "value": "63.7 °C and 63.5 °C and 60.2 °C"},
      {"measurement": "unfolding enthalpy (calorimetric)", "setting": "[4]", "value": "54 kcal/mol and 54.7 kcal/mol and 52.1 kcal/mol"},
      {"measurement": "unfolding enthalpy (calorimetric)", "setting": "pH 4.5, Sodium acetate 20 mM", "value": "53.1 kcal/mol and 46.4 kcal/mol"},
      {"measurement": "unfolding free energy", "setting": "pH 7, PIPES 20 mM, NaCl 200 mM", "value": 5.33, "unit": "kcal/mol"},
      {"measurement": "unfolding free energy", "setting": "pH 7, PIPES 20 mM", "value": 5.35, "unit": "kcal/mol"},
      {"measurement": "Tm", "setting": "pH 7, PIPES 20 mM, NaCl 200 mM", "value": "70.7 °C and 66.6 °C and 67.6 °C"},
      {"measurement": "unfolding enthalpy (calorimetric)", "setting": "pH 7, PIPES 20 mM, NaCl 200 mM", "value": "58.6 kcal/mol and 57.6 kcal/mol and 58.1 kcal/mol"},
      {"measurement": "Tm", "setting": "pH 7, PIPES 20 mM", "value": "70.7 °C and 67.2 °C"},
      {"measurement": "unfolding enthalpy (calorimetric)", "setting": "pH 7, PIPES 20 mM", "value": "59 kcal/mol and 54 kcal/mol"}
    ]}
  ]
}
